To fix the notation:
B1: Transcription factor ATOH7 (Homo sapiens), Q8N100 (parent)
chain: MKSCKPSGPPAGARVAPPCAGGTECAGTCAGAGRLESAARRRLAANARERRRMQGLNTAFDRLRRVVPQWGQDKKLSKYETLQMALSYIMALTRILAEAERFGSERDWVGLHCEHFGRDHYLPFPGAKLPGESELYSQRLFGFQPEPFQMAT
partner: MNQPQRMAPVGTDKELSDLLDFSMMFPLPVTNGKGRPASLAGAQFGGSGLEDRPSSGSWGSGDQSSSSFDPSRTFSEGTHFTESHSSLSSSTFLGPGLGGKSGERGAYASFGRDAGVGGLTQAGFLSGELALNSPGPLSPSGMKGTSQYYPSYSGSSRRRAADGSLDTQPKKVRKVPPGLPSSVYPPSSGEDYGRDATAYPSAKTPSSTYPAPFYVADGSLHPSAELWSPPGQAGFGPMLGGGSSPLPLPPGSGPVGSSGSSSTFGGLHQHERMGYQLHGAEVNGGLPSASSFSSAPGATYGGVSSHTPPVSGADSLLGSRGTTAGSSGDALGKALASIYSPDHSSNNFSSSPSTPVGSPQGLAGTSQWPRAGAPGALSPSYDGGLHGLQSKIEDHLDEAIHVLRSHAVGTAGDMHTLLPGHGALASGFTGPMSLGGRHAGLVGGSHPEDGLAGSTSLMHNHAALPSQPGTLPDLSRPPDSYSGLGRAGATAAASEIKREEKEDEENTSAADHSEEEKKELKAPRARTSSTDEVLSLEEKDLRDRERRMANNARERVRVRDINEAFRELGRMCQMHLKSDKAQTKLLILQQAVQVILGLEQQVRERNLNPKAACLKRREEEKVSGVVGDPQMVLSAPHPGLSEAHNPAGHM

Variants of B1 are the subject of this experiment. Particulars: with TCF3, P15923-2.
In the case of N46H, the “effect of a mutation on the interaction” value is “disrupting interaction strength”.

On to A59G, for which the “effect of a mutation on the interaction” value is listed as “decreasing interaction strength”.

As to A59V, the “effect of a mutation on the interaction” value is reported as “disrupting interaction strength”.

A59T: the “effect of a mutation on the interaction” value was “disrupting interaction strength”.

The values are drawn from IntAct's records for PubMed 31696227.
